Source: patent US20050085420A1, “Method of modulating apoptosis and compositions thereof” (priority 2003, published 2005)
Positions count from the first letter of the chain named. In names and notes the source's numbering stands.

Key:
BAK-X complex [1] = assay: DSS cross-linking of BAK-X complex in FL5.12 cells treated with death stimuli; assay type: cell-based; conditions: TNFα plus cyclohexamide 5 hours, etoposide (VP16) 24 hours, 10 mM DSS
Method: FIG. 1B is an illustration depicting the treatment of FL5.12 cells with either TNFα plus cyclohexamide (CHX) for 5 hours (lane 3), etoposide (VP16) for 24 hours (lane 4), or deprived of IL-3 for 18 hours (lane 5), followed by incubation with 10 mM DSS. The BAK-X complex was detected in whole cell lysates by an immunoblot developed with anti-BAK antibody.
Protein crosslinkers were used to search for a candidate protein that interacts with BAK at the mitochondria in viable cells. A ˜60 kD mobility-shifted complex immunoreactive with an antibody (Ab) to BAK was detected after treatment of purified mitochondria (FIG. 1A) or viable whole cells (FIG. 1B) with the crosslinker disuccinimidyl suberate (DSS). This presumed complex between BAK and a candidate ˜35 kD interacting protein was designated “BAK-X.” The ˜60 kD BAK-X complex was distinct in size as compared to BAK homo-oligomers detected by bismaleimidohexane (BMH) crosslinking (FIG. 1A). The same sized BAK complex was detected in multiple cell lines and in normal liver prior to death stimuli (FIG. 1C). The BAK-X complex was lost when mitochondria were treated with tBID (FIG. 1A, C) or cells were treated with death stimuli including TNFα, etoposide, or withdrawal of survival factor (FIG. 1B). Expression of BH3-only members BAD, BIM, or tBID killed cells and diminished the amount of BAK-X complex (FIG. 1D). […]

BAK-X complex [2] = target: T1, BAK-X complex (Mus musculus, UniProt O08734+Q60930); assay: DSS cross-linking of BAK-X complex in isolated mitochondria, anti-BAK immunoblot; assay type: biochemical; conditions: liver mitochondria 50 μg, 5 μl in vitro transcribed-translated mutant tBID, 30° C. 30 min
T1 construct: isolation of mitochondria (50 μg) from wild-type (wt) mouse embryonic fibroblasts (MEFs); endogenous in cells; host or cells: mitochondria from wt MEFs
T1 sequence (O08734 2-209 limits assumed): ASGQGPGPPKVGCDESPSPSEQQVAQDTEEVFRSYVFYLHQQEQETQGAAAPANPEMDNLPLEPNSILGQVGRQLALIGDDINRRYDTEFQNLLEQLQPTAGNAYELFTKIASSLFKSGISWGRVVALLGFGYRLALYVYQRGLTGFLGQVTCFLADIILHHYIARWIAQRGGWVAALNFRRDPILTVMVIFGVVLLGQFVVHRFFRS
T1 sequence (Q60930 1-295): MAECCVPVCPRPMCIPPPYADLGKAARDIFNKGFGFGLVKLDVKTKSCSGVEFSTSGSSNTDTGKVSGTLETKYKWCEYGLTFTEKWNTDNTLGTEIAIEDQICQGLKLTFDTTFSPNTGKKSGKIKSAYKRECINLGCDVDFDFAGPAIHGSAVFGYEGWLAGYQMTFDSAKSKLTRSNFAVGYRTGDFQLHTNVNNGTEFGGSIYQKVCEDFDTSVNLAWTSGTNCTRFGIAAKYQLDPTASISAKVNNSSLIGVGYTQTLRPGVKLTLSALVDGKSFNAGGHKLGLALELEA
Method: FIG. 1A is an illustration depicting isolation of mitochondria (50 μg) from wild-type (wt) mouse embryonic fibroblasts (MEFs). The isolated mitochondria were incubated with recombinant tBID protein (50 ng) at 30° C. for 30 min, followed by treatment with the cross-linkers disuccinimidyl suberate (DSS) (10 mM) or bismaleimidohexane (BMH) (10 mM) at room temperature for 30 minutes. Higher order BAK complexes were identified by immunoblot developed with an anti-BAK antibody.
FIG. 1C is an illustration depicting treatment of mitochondria (50 μg) isolated from mouse liver, Bal17, Jurkat, and FL5.12 cells with 50 ng tBID protein at 30° C. for 30 min, followed by DSS cross-linking. The BAK-X complex was detected by an immunoblot developed with anti-BAK antibody.
FIG. 1E is a photograph depicting isolated liver mitochondria (50 μg) which were incubated with 5 μl of in vitro transcribed-translated wt or mutant tBID at 30° C. for 30 min, followed by DSS cross-linking. The BAK-X complex was detected by an immunoblot developed with anti-BAK antibody. […]
Protein crosslinkers were used to search for a candidate protein that interacts with BAK at the mitochondria in viable cells. A ˜60 kD mobility-shifted complex immunoreactive with an antibody (Ab) to BAK was detected after treatment of purified mitochondria (FIG. 1A) or viable whole cells (FIG. 1B) with the crosslinker disuccinimidyl suberate (DSS). […]

VDAC2 = target: T2, VDAC2 (Mus musculus, UniProt Q60930); assay: Anti-HA immunoprecipitation of HA-tagged VDAC2 with BH3-only molecules; assay type: binding; conditions: for interaction with HA-tagged VDAC2 (co-immunoprecipitation): mitochondria, anti-HA immunoprecipitation, 1% CHAPS (or 0.2% NP40)
T2 construct: expressed in transfected cells; host or cells: vdac1 -/-, vdac3 -/- mouse fibroblasts; wt or vdac2 -/- MEFs; Bax, Bak doubly deficient MEFs (retrovirus pMIG)
T2 sequence (Q60930 1-295): T1 sequence (Q60930 1-295)
Source text: Murine vdac1, vdac2, N-terminal HA-tagged vdac2, N-terminal-HA tagged Bax or Bak, as well as wild type and mutant Bak (mBH1, W122A, G123E, R124A; mBH3, L75E) were cloned into the retroviral expression vector MSCV-IRES-GFP (pMIG). PcDNA3-tBID (wt and mutants) was described previously M. C. Wei et al., Genes Dev 14, 2060-71. (2000). Generation of amphotropic retroviruses and retroviral infection were described previously E. H. Cheng et al., Mol Cell 8, 705-11. (2001). Retroviral expression of each indicated protein was confirmed by immunoblot. […]
The strength of association between BIM-EL and VDAC2 was compared to the strength of the association, if any, between BIM-EL and BAK or BAX. Mitochondria isolated from Bax, Bak doubly deficient MEFs transduced with retrovirus expressing N-terminal HA-tagged BAX, BAK, or VDAC2 were solubilized in 1% CHAPS or 0.2% NP-40 buffer, followed by anti-HA immunoprecipitation. The immunoprecipitates were analyzed by an immunoblot developed with anti-BIM. […] These findings indicate that BH3-only competition for VDAC2 frees BAK, which, in the absence of its specific inhibitor VDAC2, is prone to auto-activating homo-oligomerization. […]

Bax -/- MEFs = assay: Annexin-V cell death after retroviral expression of VDAC1 or VDAC2 in Bax -/- MEFs; assay type: cell-based, mouse; conditions: Bax -/- cells, retroviral expression, 1.2 μM staurosporine or 10 μg/ml etoposide, Annexin-V
Method: (§1) FIG. 3A are two graphs illustrating Bax -/- or Bak -/- MEFs at 2 days following retroviral expression of VDAC1, VDAC2, or GFP (MIG vector control), wherein the Bax -/- or Bak -/- MEFs were treated with 1.2 μM staurosporine (STS). Cell death was quantitated by flow cytometric detection of Annexin-V staining at indicated time points. Values shown are mean ±1 SD of three independent experiments.
(§2) FIG. 3B is a histogram depicting Bax -/- or Bak -/- MEFs at 2 days following retroviral expression of VDAC2 or GFP (MIG vector control), wherein the Bax -/- or Bak -/- MEFs were infected with tBID-expressing retrovirus. Cell death was quantitated by flow cytometric detection of Annexin-V staining at 24 hr. Values shown are mean ±1 SD of three independent experiments.
as §1, with “6” for “3A”, “that depict” for “illustrating”, “10 μg/ml etoposide.” for “1.2 μM staurosporine (STS).”
(§3) Previous studies have shown that cells doubly deficient for BAX and BAK are resistant to intrinsic death stimuli, whereas cells singly deficient for BAX or BAK are still susceptible (M. C. Wei et al., Science 292, 727-30. (2001)). As VDAC2 interacts with BAK but not BAX, the ability of VDAC2 to modulate apoptosis mediated by BAK or BAX was tested. According to one hypothesis, VDAC2 might function as an inhibitor of BAK or VDAC2 itself might function as a proapoptotic factor once released from BAK. To address these alternatives VDAC 1 or VDAC2 was expressed in Bax -/- or Bak -/- singly deficient mouse embryonic fibroblasts (MEFs) followed by treatment with staurosporine or etoposide. […] Expression of VDAC2 inhibited tBID-induced apoptosis of Bax -/- cells but not Bak -/- cells, further supporting a selective role for VDAC2 in negatively regulating BAK-dependent apoptosis (FIG. 3B).

Bak -/- MEFs = assay: Annexin-V cell death after retroviral expression of VDAC1 or VDAC2 in Bak -/- MEFs; assay type: cell-based, mouse; conditions: Bak -/- cells, retroviral expression, 1.2 μM staurosporine or 10 μg/ml etoposide, Annexin-V
Method: as §1, §2
as §1, with “6” for “3A”, “that depict” for “illustrating”, “10 μg/ml etoposide.” for “1.2 μM staurosporine (STS).”
as §3

BAK-X complex [3] = target: T1, BAK-X complex; assay: BAK-X complex after retroviral transduction of BH3-only members in wt MEFs; assay type: cell-based; conditions: 24 hours following retroviral transduction, DSS
Method: FIG. 1D is a photograph depicting isolated mitochondria from wt MEFs, in which the isolated mitochondria were treated with DSS 24 hours following retroviral transduction of tBID, BIM, or BAD. The BAK-X complex was detected by an immunoblot developed with an anti-BAK antibody.
Murine vdac1, vdac2, N-terminal HA-tagged vdac2, N-terminal-HA tagged Bax or Bak, as well as wild type and mutant Bak (mBH1, W122A, G123E, R124A; mBH3, L75E) were cloned into the retroviral expression vector MSCV-IRES-GFP (pMIG). PcDNA3-tBID (wt and mutants) was described previously M. C. Wei et al., Genes Dev 14, 2060-71. (2000). Generation of amphotropic retroviruses and retroviral infection were described previously E. H. Cheng et al., Mol Cell 8, 705-11. (2001).
Protein crosslinkers were used to search for a candidate protein that interacts with BAK at the mitochondria in viable cells. […] Wei et al., Genes Dev 14, 2060-71. (2000).

wt MEFs = assay: Cell killing by expression of BH3-only members; assay type: cell-based, mouse; conditions: retroviral expression

TNFα
BAK-X complex when cells were treated with death stimuli (BAK-X complex [1]): lost

COc1cc([C@@H]2c3cc4c(cc3[C@@H](O[C@@H]3O[C@@H]5CO[C@@H](C)O[C@H]5[C@H](O)[C@H]3O)[C@H]3COC(=O)[C@H]23)OCO4)cc(OC)c1O [etoposide]
BAK-X complex when cells were treated with death stimuli (BAK-X complex [1]): lost

B1: mIII.1: mutant tBID with BH3 mutation mIII.1, still capable of binding BAK (protein)
chain: GSQASRSFNQGRIEPDSESQEEIIHNIARHLAQIGDEAAHNIQPTLVRQLAAQFMNGSLSEEDKRNCLAKALDEVKTAFPRDMENDKAMLIMTMLLAKKVASHAPSLLRDVFHTTVNFINQNLFSYVRNLVRNEMD
dissociation of the BAK-X complex by mutant tBID (BAK-X complex [2]): caused dissociation

B2: mutant tBID mIII.4 (G94E) (other, UniProt P70444 60-195, looked up)
chain: B1 chain with G35E, A38M, A39D
notes: domain: p15 tBID; also called m111.4 mutant; m l 11.4
dissociation of the BAK-X complex by mutant tBID (BAK-X complex [2]): not | interaction with HA-tagged VDAC2 (co-immunoprecipitation) (VDAC2): did not recognize VDAC2

B3: VDAC1: murine VDAC1 isoform, retrovirally expressed (protein)
chain: AVPPTYADLGKSARDVFTKGYGFGLIKLDLKTKSENGLEFTSSGSANTETTKVNGSLETKYRWTEYGLTFTEKWNTDNTLGTEITVEDQLARGLKLTFDSSFSPNTGKKNAKIKTGYKREHINLGCDVDFDIAGPSIRGALVLGYEGWLAGYQMNFETSKSRVTQSNFAVGYKTDEFQLHTNVNDGTEFGGSIYQKVNKKLETAVNLAWTAGNSNTRFGIAAKYQVDPDACFSAKVNNSSLIGLGYTQTLKPGIKLTLSALLDGKNVNAGGHKLGLGLEFQA
apoptosis after staurosporine or etoposide (Bax -/- MEFs): no substantial effect | apoptosis after staurosporine or etoposide (Bak -/- MEFs): no substantial effect

B4: BAD: BH3-only BCL-2 family member, retrovirally expressed (protein, UniProt Q61337 1-204, looked up)
Bcl2-associated agonist of …: MGTPKQPSLAPAHALGLRKSDPGIRSLGSDAGGRRWRPAAQSMFQIPEFEPSEQEDASATDRGLGPSLTEDQPGPYLAPGLLGSNIHQQGRAATNSHHGGAGAMETRSRHSSYPAGTEEDEGMEEELSPFRGRSRSAPPNLWAAQRYGRELRRMSDEFEGSFKGLPRPKSAGTATQMRQSAGWTRIIQSWWDRNLGKGGSTPSQ
amount of BAK-X complex (BAK-X complex [3]): diminished | cell killing on expression (wt MEFs): killed cells

B5: BIM: BH3-only BCL-2 family member, retrovirally expressed (protein, UniProt O54918 1-196, looked up)
Bcl-2-like protein 11: MAKQPSDVSSECDREGGQLQPAERPPQLRPGAPTSLQTEPQGNPDGEGDRCPHGSPQGPLAPPASPGPFATRSPLFIFVRRSSLLSRSSSGYFSFDTDRSPAPMSCDKSTQTPSPPCQAFNHYLSAMASIRQSQEEPEDLRPEIRIAQELRRIGDEFNETYTRRVFANDYREAEDHPQMVILQLLRFIFRLVWRRH
amount of BAK-X complex (BAK-X complex [3]): diminished | cell killing on expression (wt MEFs): killed cells

B6: BIM-EL: BH3-only molecule BIM-EL (protein)
chain: B5 Bcl-2-like protein 11
strength of association with VDAC2 compared to BAX or BAK (VDAC2; Bax, Bak doubly deficient MEFs with HA-tagged BAX, BAK or VDAC2, 1% CHAPS or 0.2% NP-40): associate more strongly with VDAC2 than BAX or BAK | interaction with HA-tagged VDAC2 (co-immunoprecipitation) (VDAC2): strong interaction
